Measured values published in US6288042, “Anti-viral guanosine-rich tetrad forming oligonucleotides” (Aronex Pharmaceuticals, Inc.).

Key:
[1] = biological target: T1, HIV-1 integrase wild-type (IN1-288) (Human immunodeficiency virus 1, UniProt P04585 P04585:1148-1435); assay: inhibition; 3'-processing column as printed; strand transfer column 0.059; conditions: G4
HIV-1 gp120 = HIV-1 gp120 (Human immunodeficiency virus 1, UniProt P04578 P04578:33-511); assay: competition; PT oligonucleotide inhibits V3 loop Mab binding to immobilized gp120; conditions: tags: immobilized
[2] = biological target: T1, HIV-1 integrase wild-type (IN1-288); assay: inhibition; 3'-processing column as printed; strand transfer column 0.159; conditions: G4
[3] = biological target: T1, HIV-1 integrase wild-type (IN1-288); assay: inhibition; 3'-processing column as printed; strand transfer column 0.129; conditions: G4
[4] = biological target: T1, HIV-1 integrase wild-type (IN1-288); assay: inhibition; 3'-processing column as printed; strand transfer column 0.090; conditions: G4
FIV integrase = FIV integrase (Feline immunodeficiency virus, UniProt P16088 P16088:844-1124); assay: inhibition; 3'-processing; conditions: G4
SIV integrase = biological target: T2, SIV integrase (Simian immunodeficiency virus, UniProt P05896 P05896:1156-1448); assay: inhibition; 3'-processing; conditions: G4
T2 sequence: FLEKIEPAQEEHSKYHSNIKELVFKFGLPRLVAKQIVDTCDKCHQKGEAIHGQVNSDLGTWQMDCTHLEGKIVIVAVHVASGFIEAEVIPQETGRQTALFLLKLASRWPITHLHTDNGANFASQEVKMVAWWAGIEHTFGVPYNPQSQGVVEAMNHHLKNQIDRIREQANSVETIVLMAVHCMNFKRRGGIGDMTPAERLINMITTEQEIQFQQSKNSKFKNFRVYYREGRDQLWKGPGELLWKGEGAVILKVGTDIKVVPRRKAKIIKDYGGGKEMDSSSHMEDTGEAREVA

[5] = biological target: HIV-1 nucleocapsid protein (Human immunodeficiency virus 1, UniProt P04591 P04591:378-432); assay: binds efficiently, data not shown; conditions: G4
[6] = biological target: T1, HIV-1 integrase wild-type (IN1-288); assay: inhibition; 3'-processing; other column (strand transfer) 0.870; Table B-7 gives >0.50; only modest inhibition of U5 DNA binding at 500 nM (FIG. 25); conditions: G4
[7] = biological target: FMLV reverse transcriptase (Friend murine leukemia virus, UniProt P26810 P26810:661-1331); assay: inhibition; reverse transcriptase activity in culture medium; conditions: protein: virion; tags: culture medium of chronically infected NIH3T3 cells
[8] = biological target: T1, HIV-1 integrase wild-type (IN1-288); assay: inhibition; 3'-processing column as printed; strand transfer column 0.485; conditions: G4
[9] = biological target: T1, HIV-1 integrase wild-type (IN1-288); assay: inhibition; 3'-processing column as printed; strand transfer column 0.110; conditions: G4

Question: For GGGGTGGTGGGTGGGT (structured_DNA, C-5 propynyl dU at capital T; PS at first and last linkage) [T30720], which IC50 [1] is on record?
Answer: 62 nM

Question: Does GGGTGGGTGGGTGGGTGG (ssDNA, PS all linkages) [1174] bind (HIV-1 gp120)?
Answer: binds

Question: With GTGGTTGGTGGGTGGGT (structured_DNA, PS at first and last linkage) [T30679] as the binder, how does the IC50 [2] read?
Answer: 156 nM

Question: GTGGGTGGTGGGTGGGT (structured_DNA, C-5 propynyl dU at capital T; PS at first and last linkage) [T30722] was tested. Which IC50 [3] did it give?
Answer: 134 nM

Question: With GTGGTGGGTGGGTGGGT (structured_DNA, 5-bromo dU at 13; PS at first and last linkage [n positions 13 = modified dU]) [T30570] as the binder, how does the IC50 [4] read?
Answer: 70 nM

Question: Does GTGGTGGGTGGGTGGGTGGTGGGTGGTGGTTGTGGGTGGGTGGTG (ssDNA, PS all linkages) [I100-21] bind (HIV-1 gp120)?
Answer: binds

Question: With GTGGTGGGTGGGTGGGT (structured_DNA, PS at first and last linkage (pPT)) [T30177 (AR177)] as the binder, how does the IC50 (FIV integrase) read?
Answer: 175 nM

Question: And the IC50 (SIV integrase)?
Answer: 420 nM

Question: Does GTGGTGGGTGGGTGGGT (structured_DNA, PS at first and last linkage (pPT)) [T30177 (AR177)] bind [5]?
Answer: binds

Question: Which IC50 [6] does the source give for GGTTGGTGTGGTTGG (structured_DNA, PS at first and last linkage (Table B-7; Table C-1 says PT)) [T30659 thrombin binding aptamer pPT] here?
Answer: 750 nM

Question: Which IC50 [7] does the source give for GTTGGGGGTTGTTGGTGGGGTGGTGG (ssDNA, PS all linkages) [I100-12] here?
Answer: < 500 nM

Question: How did the IC50 [8] turn out when GTGGTGGGTGTGGTTGGT (structured_DNA, PS at first and last linkage) [T30675] was run?
Answer: 500 nM

Question: GTGGTGGGTGGGTGGGT (structured_DNA, 3'-cholesterol via triglycyl linker) [T30075] was tested. Which IC50 [9] did it give?
Answer: 95 nM
